The values that follow come from US20030049255A1 (published 2003).

B1: cynomolgus IL-1α (ligand, cynomolgus macaque, UniProt P79340 113-271, looked up)
chain: SAPFSFLSNMTYHFIRIIKHEFILNDTLNQTIIRANDQYLTAAAIHNLDEAVKFDMGAYTSSKDDTKVPVILRISKTQLYVSAQDEDQPVLLKEMPEIPKTITGSETNFLFFWETHGTKNYFISVAHPNLFIATKHDNWVCLAKGLPSITDFQILENQA
notes: also called cynomolgus macaque IL-1α
B2: cynomolgus IL-1ra (ligand, cynomolgus macaque, UniProt Q866R8 26-177, looked up)
chain: RPSGRKPSKMQAFRIWDVNQKTFYLRNNQLVAGYLQGPNVNLEEKIDVVPIEPHALFLGIHGGKMCLSCVKSGDETRLQLEAVNITDLSKNRKQDKRFAFVRSDSGPTTSFESAACPGWFLCTAMEADQPVSLTNMPDKGVMVTKFYFQEDE
notes: also called cynomolgus macaque IL-1 receptor antagonist
B3: recombinant human type II IL-1R:Fc (Fc fusion)
chain: FTLQPAAHTGAARSCRFRGRHYKREFRLEGEPVALRCPQVPYWLWASVSPRINLTWHKNDSARTVPGEEETRMWAQDGALWLLPALQEDSGTYVCTTRNASYCDKMSIELRVFENTDAFLPFISYPQILTLSTSGVLVCPDLSEFTRDKTDVKIQWYKDSLLLDKDNEKFLSVRGTTHLLVHDVALEDAGYYRCVLTFAHEGQQYNITRSIELRIKKKKEETIPVIISPLKTISASLGSRLTIPCKVFLGTGTPLTTMLWWTANDTHIESAYPGGRVTEGPRQEYSENNENYIEVPLIFDPVTREDLHMDFKCVVHNTLSFQTLRTTVKE
notes: also called human IL-1RII:Fc; soluble recombinant human type II IL 1R:Fc; not shown: Fc portion of human IgG
B4: human IL-1α (ligand, UniProt P01583 113-271, looked up)
chain: SAPFSFLSNVKYNFMRIIKYEFILNDALNQSIIRANDQYLTAAALHNLDEAVKFDMGAYKSSKDDAKITVILRISKTQLYVTAQDEDQPVLLKEMPEIPKTITGSETNLLFFWETHGTKNYFTSVAHPNLFIATKQDYWVCLAGGPPSITDFQILENQA
notes: also called IL-1 alpha

Assay [1] concerns the target cynomolgus IL-1β (cynomolgus macaque) (UniProt P79182). Put plainly: SPR, BIACORE 3000, both Fc fusions captured, ligand in flow. A general note: SPR reads the build-up and loss of mass on a sensor chip optically.
The target in assay [2] is recombinant rhesus IL-1β (rhesus) (UniProt P48090). Put plainly: cell-based or functional assay.
Assay [3] has as its target recombinant rhesus IL-1α (rhesus) (UniProt P48089). Put plainly: cell-based or functional assay.
The target of assay [4] is B3. Kind of assay: SPR, BIACORE 3000, receptor:Fc captured, ligand in flow, without cynomolgus IL-1AcP.
Assay [5] addresses B4. Put plainly: SPR, BIACORE 3000, receptor:Fc captured on anti-human IgG Fc, ligand in flow, 25 C, without IL-1AcP. Here is the method:
(§1) The relative ability of purified soluble type II IL-1R to bind IL-1α, IL-1β and IL-1ra was measured using a BIACORE 3000 instrument with a research grade CM5 sensor chip at 25 degrees C. Soluble recombinant human type II IL-1R was fused to the Fc portion of human IgG so that the resulting type II IL-1R:Fc construct could be bound to a goat anti-human IgG, Fc chain-specific antibody immobilized to the chip using standard amine coupling chemistry. A similar construct was made using IL-1AcP for the same reason. When IL-1AcP:Fc was used in combination with type II IL-1R:Fc, it was mixed in a 1:1 molar ratio before injection into the BIACORE 3000. Kinetic data were obtained by running a range of concentrations of IL-1α, IL-1β, and IL-1 ra over a flow cell that contained receptor bound to immobilized antibody, and a reference cell of immobilized antibody alone. […] In the presence of human IL-1AcP:Fc, the apparent equilibrium binding constants of human type II IL-1R:Fc for human IL-1α and IL-1β were increased >100-fold over those measured in the absence of human IL-1AcP. Human IL-1AcP:Fc slowed the dissociation rates of both ligands by 100-fold. In contrast, human IL-1AcP:Fc had little effect on the affinity of human IL-1RII:Fc for human IL-1ra. In the absence of receptor, no binding of human IL-1α, IL-1β, and IL-1ra to human IL-1AcP:Fc was detected.

Assay [6] deals with T1, recombinant human IL-1 receptor Accessory Protein (AcP):Fc (human, UniProt Q9NPH3 21-359).
T1 construct: also called human IL-1AcP:Fc; soluble recombinant human IL-1AcP:Fc
T1 sequence: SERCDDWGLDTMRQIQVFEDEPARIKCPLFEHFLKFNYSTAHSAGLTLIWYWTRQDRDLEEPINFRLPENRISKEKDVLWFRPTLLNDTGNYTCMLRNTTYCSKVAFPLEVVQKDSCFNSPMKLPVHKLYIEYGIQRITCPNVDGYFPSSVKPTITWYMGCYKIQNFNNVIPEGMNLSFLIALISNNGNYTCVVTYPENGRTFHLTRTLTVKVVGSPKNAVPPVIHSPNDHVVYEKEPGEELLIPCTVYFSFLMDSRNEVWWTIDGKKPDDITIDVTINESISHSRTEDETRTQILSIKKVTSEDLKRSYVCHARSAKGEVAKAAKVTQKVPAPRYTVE
Kind of assay: SPR, BIACORE 3000, Fc fusion captured on anti-human IgG Fc, ligand in flow. The procedure: as §1

Chain of cynomolgus IL-1β (cynomolgus macaque) (P79182 117-268 limits assumed): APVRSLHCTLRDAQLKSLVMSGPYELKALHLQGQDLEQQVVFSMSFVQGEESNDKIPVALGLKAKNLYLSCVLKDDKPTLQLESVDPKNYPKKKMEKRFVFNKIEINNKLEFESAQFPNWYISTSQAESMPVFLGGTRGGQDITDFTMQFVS
Chain of recombinant rhesus IL-1β (rhesus) (P48090 117-269 limits assumed): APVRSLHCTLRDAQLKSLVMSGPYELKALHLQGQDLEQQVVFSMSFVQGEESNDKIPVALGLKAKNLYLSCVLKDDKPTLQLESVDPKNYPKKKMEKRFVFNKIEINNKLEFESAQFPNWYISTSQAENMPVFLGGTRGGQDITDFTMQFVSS

For “human type II IL-1R:Fc in the presence of cynomolgus IL-1AcP:Fc (from UniProt A0A7N9CMI5 18-336)”, in assay [1], the Ka is 1.8e+08 M⁻¹ and the fold increase of apparent affinity over that without IL-1AcP is above 100 fold.
Take “soluble IL-1R Type II in the presence of IL-1RAcP (from UniProt P27930 14-343; Q9NPH3 21-367)”: the results for the NF-κB luciferase reporter activity in COS7 cells in assay [2] and in assay [3] were 25 fold and 25 times, respectively.
For the molecule B1, the Ka in assay [4] stood at 1.4e+06 M⁻¹.
On the same count and under the same terms, for B2 the value was 6.2e+07 M⁻¹.
Regarding B3, the “fold lower affinity than for human IL-1β” value in assay [5] was 100 fold.
Turning to B4, the binding result in assay [6] is “no binding”.
